# Reference: publication PMC8069351, “Characterization of Two Unique Cold-Active Lipases Derived from a Novel Deep-Sea Cold Seep Bacterium” (Microorganisms, 2021)
# Substrate: CCCCCCCCCCCCCCCC(=O)Oc1ccc([N+](=O)[O-])cc1
# Experiment: purified protein
# Type: biochemical, Pseudomonas sp. gcc21
# Details: 50 mM Tris-HCl pH 8.0, 4 °C, substrate 0.2-1.2 mM, text b44 swaps the two lipases' Km
protein,measurement,value
Lipase 2 (Pseudomonas sp. gcc21) (protein) MNSPLLKLSTLTLGLVFAAGAYAFNPGNPGGPSNPGGDQPVESGFPSVGNFEASGSFATTNASEGPSCTIYRPRTLGENDLKHPIILWGNGTGTSPSGYSALLNHWASHGFVVAAANTTNAGSGAEMLACLDYLAEQNGRGSGTYAGKLNLDAVGSSGHSQGGGGSIMAGQDSRITATAPFQPYTLGLGHRRASQSNQNGPMFLMTGSADTLASSEANGRPVFNNANVPVFWGELQGASHFVPAFNGGGYRGPSTAWYRYHLMGDQNAESTFYGADCKLCTSSEWKVQKKGIQ,Km,20 µM
same,kcat,2.7 s⁻¹
same,kcat/Km,140000 M⁻¹ s⁻¹
